Data as given in the supplement of paper PMC6379048.
pEC50: −log10 of the molar value.

How the values were obtained:
Test in all cases: EC50 of free RNA motif oligo competing protein binding to immobilised probe
AQR = biological target: T1, AQR (UniProt O60306)
T1 sequence: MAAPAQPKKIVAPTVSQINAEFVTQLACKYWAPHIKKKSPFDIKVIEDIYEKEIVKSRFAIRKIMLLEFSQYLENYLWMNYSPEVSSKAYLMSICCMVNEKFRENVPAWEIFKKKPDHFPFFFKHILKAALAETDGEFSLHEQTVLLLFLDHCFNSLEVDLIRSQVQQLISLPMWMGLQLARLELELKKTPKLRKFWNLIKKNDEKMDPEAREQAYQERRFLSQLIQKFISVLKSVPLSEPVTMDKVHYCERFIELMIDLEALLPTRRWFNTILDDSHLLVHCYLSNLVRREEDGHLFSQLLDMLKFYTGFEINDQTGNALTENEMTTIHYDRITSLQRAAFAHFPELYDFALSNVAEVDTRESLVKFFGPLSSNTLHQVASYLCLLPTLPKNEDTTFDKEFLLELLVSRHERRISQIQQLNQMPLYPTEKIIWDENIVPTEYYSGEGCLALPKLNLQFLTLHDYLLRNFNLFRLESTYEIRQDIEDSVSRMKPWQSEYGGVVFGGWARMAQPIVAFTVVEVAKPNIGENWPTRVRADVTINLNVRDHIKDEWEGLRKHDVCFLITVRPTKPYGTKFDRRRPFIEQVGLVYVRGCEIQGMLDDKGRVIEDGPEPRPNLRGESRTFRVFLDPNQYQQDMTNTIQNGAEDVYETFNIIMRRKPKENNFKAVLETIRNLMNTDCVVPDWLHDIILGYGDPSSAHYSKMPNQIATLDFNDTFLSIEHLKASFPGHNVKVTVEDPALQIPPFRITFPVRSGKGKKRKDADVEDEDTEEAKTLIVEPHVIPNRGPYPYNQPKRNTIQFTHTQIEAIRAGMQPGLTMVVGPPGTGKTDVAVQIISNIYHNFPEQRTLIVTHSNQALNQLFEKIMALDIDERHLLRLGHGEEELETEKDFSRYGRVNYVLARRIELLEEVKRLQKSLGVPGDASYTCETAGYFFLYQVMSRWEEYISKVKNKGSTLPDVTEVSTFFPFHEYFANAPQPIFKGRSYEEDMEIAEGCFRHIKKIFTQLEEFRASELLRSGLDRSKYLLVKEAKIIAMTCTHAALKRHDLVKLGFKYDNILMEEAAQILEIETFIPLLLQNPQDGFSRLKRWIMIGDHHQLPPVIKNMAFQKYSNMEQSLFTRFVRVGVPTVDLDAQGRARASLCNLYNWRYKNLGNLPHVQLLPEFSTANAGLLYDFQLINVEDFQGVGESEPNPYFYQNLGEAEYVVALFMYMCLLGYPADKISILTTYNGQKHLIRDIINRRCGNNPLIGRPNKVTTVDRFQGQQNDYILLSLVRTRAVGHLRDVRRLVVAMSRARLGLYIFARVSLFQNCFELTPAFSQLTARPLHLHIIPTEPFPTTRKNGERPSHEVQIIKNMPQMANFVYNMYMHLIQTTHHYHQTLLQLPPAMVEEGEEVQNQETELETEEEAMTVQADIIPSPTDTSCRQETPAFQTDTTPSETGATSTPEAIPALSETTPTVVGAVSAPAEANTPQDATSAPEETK
Outline: (§1)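 To obtain EC50, data were fitted with a four-parameter log-logistic model; Kd was then EC50 multiplied by a protein-dependent depletion factor. Beforehand, free RNA oligos (0 nM to 30 μM) were pre-incubated with HEK293-FT lysate (2.5 mg protein/well) for 1 h at 4°C. The lysate then spent 30 min at 4°C with the same 5′-amino-C6 oligos coupled to NHS-Sepharose beads, and bound proteins were quantified by label-free LC-MS/MS, normalised to the control.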

LSM3 = LSM3 (UniProt P62310)
LSM3, sequence (P62310 whole entry): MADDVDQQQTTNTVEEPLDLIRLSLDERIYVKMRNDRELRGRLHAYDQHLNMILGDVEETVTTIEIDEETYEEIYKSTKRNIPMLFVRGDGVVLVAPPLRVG
Outline: as §1

MEX3A = biological target: T2, MEX3A (UniProt A1L020)
T2 sequence: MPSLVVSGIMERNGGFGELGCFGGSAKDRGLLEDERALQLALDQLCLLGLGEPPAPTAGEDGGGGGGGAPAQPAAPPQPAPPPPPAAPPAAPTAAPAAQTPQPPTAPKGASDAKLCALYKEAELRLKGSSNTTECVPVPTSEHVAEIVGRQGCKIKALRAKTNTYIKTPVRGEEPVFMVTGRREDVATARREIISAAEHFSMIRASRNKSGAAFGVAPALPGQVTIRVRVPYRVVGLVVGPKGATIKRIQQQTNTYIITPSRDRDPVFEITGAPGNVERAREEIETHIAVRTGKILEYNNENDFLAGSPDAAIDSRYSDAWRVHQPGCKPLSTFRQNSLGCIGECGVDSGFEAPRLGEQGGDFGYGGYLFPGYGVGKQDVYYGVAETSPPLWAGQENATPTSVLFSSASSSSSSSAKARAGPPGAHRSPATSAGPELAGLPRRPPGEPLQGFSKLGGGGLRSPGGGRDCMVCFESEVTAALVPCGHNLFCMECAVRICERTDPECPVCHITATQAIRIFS
Outline: as §1

NCL = NCL (UniProt P19338)
NCL, sequence (P19338 whole entry): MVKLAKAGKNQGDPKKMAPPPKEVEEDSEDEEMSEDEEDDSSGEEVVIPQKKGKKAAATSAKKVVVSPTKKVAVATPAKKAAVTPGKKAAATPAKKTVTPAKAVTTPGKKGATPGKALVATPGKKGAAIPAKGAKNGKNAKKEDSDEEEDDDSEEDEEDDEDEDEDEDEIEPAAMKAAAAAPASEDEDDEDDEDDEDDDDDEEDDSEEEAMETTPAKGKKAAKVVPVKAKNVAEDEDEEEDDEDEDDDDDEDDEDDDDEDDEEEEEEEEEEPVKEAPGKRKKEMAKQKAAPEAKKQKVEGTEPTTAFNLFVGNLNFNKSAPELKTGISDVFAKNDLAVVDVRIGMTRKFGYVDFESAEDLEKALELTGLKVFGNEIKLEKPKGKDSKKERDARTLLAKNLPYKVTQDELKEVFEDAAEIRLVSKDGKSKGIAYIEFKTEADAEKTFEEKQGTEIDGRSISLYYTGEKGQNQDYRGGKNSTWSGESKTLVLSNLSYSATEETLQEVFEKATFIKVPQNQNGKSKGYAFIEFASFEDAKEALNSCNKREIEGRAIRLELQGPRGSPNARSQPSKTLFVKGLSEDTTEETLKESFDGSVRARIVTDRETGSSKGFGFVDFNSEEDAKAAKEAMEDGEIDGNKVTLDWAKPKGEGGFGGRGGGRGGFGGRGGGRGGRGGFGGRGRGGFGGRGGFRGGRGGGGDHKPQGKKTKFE
Outline: as §1

ZFP36L2 = biological target: T3, ZFP36L2 (UniProt P47974)
T3 sequence: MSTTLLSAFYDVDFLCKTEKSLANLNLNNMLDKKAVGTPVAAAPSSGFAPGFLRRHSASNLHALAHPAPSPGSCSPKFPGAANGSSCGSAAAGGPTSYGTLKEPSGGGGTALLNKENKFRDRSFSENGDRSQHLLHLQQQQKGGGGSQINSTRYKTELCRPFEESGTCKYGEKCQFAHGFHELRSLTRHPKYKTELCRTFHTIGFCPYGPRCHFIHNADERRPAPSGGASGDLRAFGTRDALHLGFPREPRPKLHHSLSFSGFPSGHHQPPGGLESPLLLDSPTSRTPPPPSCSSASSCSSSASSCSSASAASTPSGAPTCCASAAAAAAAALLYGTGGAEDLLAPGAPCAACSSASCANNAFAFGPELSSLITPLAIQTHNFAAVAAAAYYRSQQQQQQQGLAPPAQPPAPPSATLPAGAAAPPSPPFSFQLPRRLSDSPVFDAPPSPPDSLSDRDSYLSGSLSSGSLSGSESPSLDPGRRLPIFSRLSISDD
Outline: as §1

PABPC1 = PABPC1 (UniProt P11940)
PABPC1, sequence (P11940 whole entry): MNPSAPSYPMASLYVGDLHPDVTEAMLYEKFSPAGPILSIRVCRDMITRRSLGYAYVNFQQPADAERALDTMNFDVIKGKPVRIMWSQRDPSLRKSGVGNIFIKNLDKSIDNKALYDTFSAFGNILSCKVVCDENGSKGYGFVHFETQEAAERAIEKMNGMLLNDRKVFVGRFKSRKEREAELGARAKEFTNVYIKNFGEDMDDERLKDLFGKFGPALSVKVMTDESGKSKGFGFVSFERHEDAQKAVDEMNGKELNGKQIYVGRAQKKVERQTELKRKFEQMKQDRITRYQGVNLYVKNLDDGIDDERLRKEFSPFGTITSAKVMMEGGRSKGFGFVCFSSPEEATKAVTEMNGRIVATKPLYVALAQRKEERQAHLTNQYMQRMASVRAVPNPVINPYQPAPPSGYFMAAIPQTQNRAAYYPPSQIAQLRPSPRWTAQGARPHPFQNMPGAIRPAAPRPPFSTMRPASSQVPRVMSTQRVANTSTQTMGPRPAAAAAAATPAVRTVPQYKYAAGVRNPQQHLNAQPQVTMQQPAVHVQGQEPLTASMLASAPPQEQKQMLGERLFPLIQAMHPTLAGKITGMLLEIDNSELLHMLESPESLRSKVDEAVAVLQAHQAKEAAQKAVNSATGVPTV
Outline: as §1

Sequence | pEC50 (AQR) | pEC50 (LSM3) | pEC50 (MEX3A) | pEC50 (NCL) | pEC50 (ZFP36L2) | pEC50 (PABPC1)
UAUUUAU | 6.15 | 6.16 | 6.00 | 5.66 | 7.21 | –
CUGUCCU | – | – | – | 6.49 | – | 6.70
AAUAAA | 6.06 | 6.45 | 5.83 | – | 5.74 | 5.00
